assay: soluble on expression in E. coli; label from the status in PepcDB or PDB records

Sequence | soluble on expression in E. coli
MGSDKIHHHHHHMVILLNPNILESSFIPERLRARDSEISKIMEVVIKPALNNITTNLIIYGDSGTGKTVTMRFLAREVRNPKIFYINAISYRSVKNVLVELLSHEGVIISERASYANIYTRLEKAIEKYDKTVILVIDEAANILRTDEEGLYYLFRSKDSFDVNISAIFIAMDDPALLLNQRIKRSYGLFNELKFKRYSKDEILEIVRDRARMSLNTTSYDDTIIDYIAEISSEFGSARVAIDILAKAAHIAEYRRSENISYDDVRAAKSMISPYVTESKLASLDKYELAALLAICGCLSHSVSTDIACVSEQLKILREQYSLDPEMDIYEILRKLEGLGIINSYVESSGKSSGVRKKISIHDVPVSVLAEKIGNLLNGMA | not soluble
MGSDKIHHHHHHMVKLKDGFTGERALVLPRIIVDKMEEDPLTSMLHITDIGYYPKAKHHFRERKEPINQYVFIYCIDGAGSYRIGDQEYTVSANQYFILPAGVPHSYASNKSTPWTIYWIHFKGILAPFYAKDANRPMDIQSEQHSRISTRINLFEEIFNTLKNGYSNENLRYAFSMFHFYLGTLRYVQQYRNAGTNEAEDEGIVNVAIHYMKENMEKHLSLEEISTQIGYSPSHFSMLFKKQTGHSPLTYFNLLKMQQACLLLDTTDMKINQICYKIGIEDTYYFSRLFSKIMGMSPREYRKSKKG | not soluble
MGSDKIHHHHHHMVKLPPLSLYIHIPWCVQKCPYCDFNSHALKGEVPHDDYVQHLLNDLDNDVAYAQGREVKTIFIGGGTPSLLSGPAMQTLLDGVRARLPLAADAEITMEANPGTVEADRFVDYQRAGVNRISIGVQSFSEEKLKRLGRIHGPQEAKRAAKLASGLGLRSFNLDLMHGLPDQSLEEALGDLRQAIELNPPHLSWYQLTIEPNTLFGSRPPVLPDDDALWDIFEQGHQLLTAAGYQQYETSAYAKPGYQCQHNLNYWRFGDYIGIGCGAHGKVTFPDGRILRTTKTRHPRGFMQGRYLESQRDVEATDKPFEFFMNRFRLLEAAPRVEFIAYTGLCEDVIRPQLDEAIAQGYLTECADYWQITEHGKLFLNSLLELFLAE | not soluble
MGSDKIHHHHHHMVKLYKEIINLIDNHQATMVEQLHQFCEINSGTTNLTGLAIMAETLCSAFKPIADTTELITLPPLSVIDMTGNTVMQSCGDVLFISKRPHLKRRILLSGHMDTVYSASNPFQKLSYLDANQINGPGVADMKGGLIVILHALAAFENTRFAEDMGWDVLINSDEEIGSPTSGSLFNKLAHRYQAALVYEPAMTPNGTLAKNRKGSGKLTLVATGRAAHAGRAFDEGRNAICYLAEAITAVHALNGQKNGVTINVGKIAGGEALNVVPDKAVAQLDIRISLPEDEIWVRNELNKIIKQLERPDYSLNVHGTFGRPVKRICAGTERLFHRIQKIGEALGLTIDWKDSGGCCDGNNLAHYGLPVLDTLGVRGGNIHSSDEYILLDSLSERAALSALLLIDLAQGGLEDLIK | not soluble
MGSDKIHHHHHHMVKMRALLSGYYGKGNGGDEALLATLLQMLPSHVTPVVLSGNPEETRDRYNVETYDRMAPLAVLQALRSSDALIWGGGSIIQDVTSTISPFYYGGMMALAQKMGLKTVAWAQGIGPLVRPQTRWLARQTFGNCTKVSVRDRASAALLSDWQIPCIIAPDPVWALESKPVPGLWDLPAPRVAVTLRSHPQLTETRLANLTRALVDFQKATQAFILLLPFQKSEDLSIAEAIQPHLKDVSQILCLEDPQLLKGVFRGVEMAIGMRLHSLIMAAAEGCRCFALSYDPKVNRLMEDLEMPGWDLASLPNDPNLISLTWMEHYANGDPLSPDQIQSLVDRALIHRELLSQAFI | not soluble
MGSDKIHHHHHHMVLMPSPETIFIESGPLSARFRSDWGGRMTHLVHAEMGDILAPTQADVFEPYNWPRAGAYPLVPYHNRVYGASFVESGKTHRLLPHPALTPDAMHGPAHRRPWHVASAAEDRVTLQLNYEADDEWPFSFVAEQHFRLEPDRLIVELSIINSSDASAPVSLGWHPYLAVPLSSHAETDARLEYPLDALNVPTGNEAHPRSSRSIPAATGYTLHFRYWSTATVELDKGTLLLEADPIFEYLAVHRMEKYLCLEPVSMAAGALCLPETERESRGLRTILPEGRLSGRISLSIRG | not soluble
MGSDKIHHHHHHMVLRNSEGTHVHAADADQRPRAICLSTMTTNMQIVTLFRDAPDFAEPGNFEAHLVRLWSVIEALSGKDDRLGQWYLTGSTEEEALLYPAFEASGAPSTALLAVLKTKYQGKRNRAKVVGLWNGHNNPTDGATLKLSIDTGPLPSEVAIDPPKPRDAETGLAPLAAIQGIVSLLVATYAPAVVSVAPMDYFEKKVFDDKPGVGWMLYLPKVITQQQVPEARALIPVPAKGKQTGTIIVSVTDAPFSVDNPEHVAIANRIEIRLVDQDLLPAYVDI | not soluble
MGSDKIHHHHHHMVLRYTALGDSLTTGRGSGLFSPGFVQRFGDMMEADLKTRTAINIFARSGLNTEEILGLLSYPYVQKCIRDADMITITGCGNDLIDSVLAYQTSKDETIFSRVSAHCHENFEKMIAKVAEIKGENPSPYAIRVFNLYNPFPEIDIAGKWITSFNSHLETLASAPHVKIADAYSIFKGKEQEYLSFDGVHPNSKGYQAMAEAVHKLGYKELSVS | not soluble
MGSDKIHHHHHHMVQDRKSTVVITGASSGVGLYAAKALAERGWYVVMACRDVAKAQLAAQSVGIPHQGSYTIMHIDLGSLDSVRQFVKNFRASGHSLDALVCNAAIYMPLIKEPLRSPEGYELTVTTNHLGHFLLCNLMLEDLKKSSSEPRLVILGTVTHNPDELGGKIPPRPDLGDLQGFAEGFKEPISMIDGKKFEPVKAYKDSKVCNVLTMRELHQRYHESTGIVFNSLYPGCVAETPLFRNHYPLFQKIFPLFQKYITKGYVSQELAGERVAAVVADPEYNQSGVYWSWGNRQKEDGKSFVQKVSPQARDDDKGDRLWQLSAKLVGLA | not soluble
MGSDKIHHHHHHMVQVDNTFYDGSAYDPETVRFFDVAQEGAQVRQIGGLVAQGALSAFEGLRPRSVVVMLDGQIHRSCVRLVETLHSPMRQPLVITSTLPHYIGALDVLIVITDNGADEKALKALITASQRGVATLLIGPSSGPLIDESPQDTFVLPTLPTAAGLSPARIVASISTLLDLLEADPSIISDRLEHLADCIDEEVESLSPERDELVNPGRKLRAYVDHARIVHTGRTDVGLAIANVIAPIWTRRGLVSAVLDFPELMESLPELRGPEPITDDIFHDPFIDDEPGVVPFRAVVWAEEEPGIPDAMAQSCDGPSKGALTQALRLLVRGQSATTYSIEEKDL | not soluble
MGSDKIHHHHHHMVRPRIKLTEHLSTEEIEQSYRRCEDAQEKTRWLVIKLLNQQPQLSAQKVAEIVGFSGDWVRKIVRRYNKLGANGIINQQKLKPGGKKLALTNEQQQWLRQRLASPPEDGGLWSAPKVGELIRVQFGITLHVTTAWDYLKRLGFSLQQPRPLHTEAATFVQRQMFKTELTEFVRLLRFLHPHKSVEVWAEDEARLGLKPIVRRVWTPVGHRPNAVHRTRYQWLYTYGFVHPATGESFFLILPRVNIAVMQMALDAFAAEVNPHHHKIIVLLVDQAGWHTSKQLMLPAGIILFPLPAYTPQLQPTECVWSLLREAVANQMFSTLDELETVLISRCQWLMSHPQIVHGKVGFDWICQI | not soluble
MGSDKIHHHHHHMVSCGGDGTLNEVVNGIVNTDLAIAVLPMGTGSDFGKTIGIRNISDFLKAIKSGRTREVDLVAAQFANQSRRYFINILEIGFGAEVMNYVNSHKYLGRGSFKFGAFYMLSKMHPFNLRLIMDGKEYEFPTIEAIFANGRYFGGGMLASPYSEIDDGLLDVHVLKPFSRIRSAMNFRTIYDGSYLNRRICA | not soluble
MGSDKIHHHHHHMVSRYLEHLEHTFSTRLFQRNTRKISLTPAGEKALLYCENILQQQQLLQELAAPEQHNGTIRFTCGLFLFELGVAECIRQFKRQHPHIQFDVYLTESTMDLIDAQVDLALRITQKVADGLIARPVCQIESVFCAHPDYLKQHSPLLHPRQLIQHECIAHHSQHQFWTLFDNEQQPQNYPLNVTFKSNDVNALYDMCLHAQGVAMLPTLLVEKDLKEKRLKALFKNFTAPELSLSVVYASRQHLPRITQEFIAFMIENLDFYLKPQN | not soluble
MGSDKIHHHHHHMVTLEPENKVRKILITDCADAKGLIAKITGVCFAHQLNIIKNTEFVDRIQGRFFMRTVLEGVFDDASLLKALSEVLPAQNHTKLVAADKKRIVVMVTKEAHCLGDLLMKAYYGGLDVDIAAVVGNYDSLRNLTEKFDIPFHHVCHQGLDRLEHEQAILKIVNGYQPDYVVLAKYMRVLTPEFVCAYPDRIINIHHSFLPAFIGASPYKQAWERGVKIIGATAHFVNDCLDEGPIIKQDVISVDHTFSAEEMAHNGRDVEKSVLSKALQLVLNEQVIVYGNKTVVF | not soluble
MGSDKIHHHHHHMVTYVIQGILKEEEDRMVRRSFLIKGNEIAYVNGRLDKLTFIRMNGDQFCMAPGRVMNNDELETNLSISSFKKTLTSMIEKGCTSVVYFASANYERQLPFVIKQAYHRMNNSFIDYVIGLSLPAHLLRPSVLRFCKKEKIPVLRFSLQSIDDLYDVPWSRLQDVLYSYPIVLLPNMNELLEGERKLAEDLWVSLCEAHRIYGTTHPPNSLEAWPKTLLKLVGLYPKKGELRVGGDADYLLYYVARTNATLAETCDLDYDRDKPNVVVLRGSVLKANEVTSIRPGGGRRIRITRPGQFIPVSEASHWGM | not soluble
MGSDKIHHHHHHMVYVGTSGFSFEDWKGVVYPEHLKPSQFLKYYWAVLGFRIVELNFTYYTQPSWRSFVQMLRKTPPDFYFTVKTPGSVTHVLWKEGKDPKEDMENFTRQIEPLIEEQRLKMTLAQFPFSFKFSRKNVEYLEKLRESYPYELAVEFRHYSWDREETYEFLRNHGITFVVVDEPKLPGLFPYRPITTTDYAYFRFHGRNERWFEAEGEERYDYLYSEEELKTLFEDVVELSRRVKETYVFFNNCYKGQAAINALQFKKMLEERV | soluble
MGSDKIHHHHHHMWFRNLLVYRLTQDLQLDADSLEKALGEKSARPCASQELTTYGFTAPFGKGPDAPLVHVSQDFFLISARKEERILPGSVVRDALKEKVDEIEAQQMRKVYKKERDQLKDEIVQTLLPRAFIRRSSTFAAIAPSLGLILVDSASAKKAEDLLSTLREALGSLPVRPLSVKVAPTATLTDWVKTQEAAGDFHVLDECELRDTHEDGGVVRCKRQDLTSEEIQLHLTAGKLVTQLSLAWSDKLSFVLDDKLAVKRLRFEDLLQEQAEKDGGEDALGQLDASFTLMMLTFAEFLPALFEALGGEEIPQGV | not soluble
MGSDKIHHHHHHMYCMEKCVENYFVLNEEIKDKKTFDGNFVENGKSLYEVIRIIDGIPLFLGNHIKRLENSFKIEKLSFPVSLDNIKQNIFKLIEANKCEVGNVKLVFNYFENKCDFYGYFVQHKYPDEYDYINGVKTILYHGERSNPNAKVINLNFRKNVDKKIKEKGVFEAILVDRNGNITEGSKSNIFMVKSNTVYTAPVEDVLPGITREIIVEICKQCGYTVVDEKINYKKIDQFEGLFISGTSPKVLPICQVDDIKFNSQGTEMIRNIRKAYDDYISNYIKNFDSRS | not soluble
MGSDKIHHHHHHMYEENIYIKNSEYEFDNNLKQLASYLNIPVSIVRPYKEDLTLYQYKKGQVIYHSTDQIKFVYFLVNGCILHESSNITGDNYLRLSKDENIFPMNFIFNETPAPYEICTALTDCKILTLPKDLLEYLCRKHNEIFESLFKKLNETIQFQVEYIMALRANSAKERIERILQILCLSIGDDNGEFYELKQIMTVQLISNLSGLNRKTTGEIIRELKTENIIYQDKRNWIIKK | not soluble
MGSDKIHHHHHHMYELYFNWKFIWKKVGLASLTTNSTTYHSEPAYRVNLLAISSKEADFFFKMRDTLTSVMTEKLEPRYFRKGAEEGKRYTVDEARFSFRNGMCYVNQKRVRKDGSITETEQSDNRCIYDMLTILAQARSFDPKEYTIGQRIQFPMATGRRVEEQTLIYRGIKKITAENDTTYRCLIFSLVEYNKKGKEKEVITFYVTDDRNHLPVRLDMHLNFGSAKAFLKSVSGYRHPQTSIVTK | not soluble

From the DeepSol protein solubility set
